# Experimental data reported in FireProtDB (doi:10.1021/bi952198j).
# Where “and” joins values, the source holds several entries; their conditions need not be identical. Equal entries are not always repeated.
# B1: Guanyl-specific ribonuclease T1 wild type, P00651 (protein)
# chain: MMYSKLLTLTTLLLPTALALPSLVERACDYTCGSNCYSSSDVSTAQAAGYQLHEDGETVGSNSYPHKYNNYEGFDFSVSSPYYEWPILSSGDVYSGGSPGADRVVFNENNQLAGVITHTGASGNNFVECT
# Details: Aspergillus oryzae (strain ATCC 42149 / RIB 40), Thermal, DSC, reversible: yes, whole UniProt chain shown
protein,measurement,setting,value
B1,Tm,"pH 2, glycine 50 mM",34.9 °C
same,heat capacity change of unfolding,"pH 2, glycine 50 mM",1.33 kcal/mol/K
same,unfolding enthalpy (calorimetric),"pH 2, glycine 50 mM",62.1 kcal/mol
same,unfolding enthalpy (van 't Hoff),"pH 2, glycine 50 mM",78.9 kcal/mol
same,Tm,"pH 2.4, glycine 50 mM",41.4 °C
same,heat capacity change of unfolding,"pH 2.4, glycine 50 mM",0.53 kcal/mol/K
same,unfolding enthalpy (calorimetric),"pH 2.4, glycine 50 mM",67.5 kcal/mol
same,unfolding enthalpy (van 't Hoff),"pH 2.4, glycine 50 mM",87.3 kcal/mol
same,Tm,"pH 2.5, glycine 50 mM",45.8 °C
same,heat capacity change of unfolding,"pH 2.5, glycine 50 mM",0.7 kcal/mol/K
same,unfolding enthalpy (calorimetric),"pH 2.5, glycine 50 mM",82.5 kcal/mol
same,unfolding enthalpy (van 't Hoff),"pH 2.5, glycine 50 mM",90.4 kcal/mol
same,Tm,"pH 2.75, glycine 50 mM",48.5 °C
same,heat capacity change of unfolding,"pH 2.75, glycine 50 mM",0.04 kcal/mol/K
same,unfolding enthalpy (calorimetric),"pH 2.75, glycine 50 mM",83.8 kcal/mol
same,unfolding enthalpy (van 't Hoff),"pH 2.75, glycine 50 mM",95.4 kcal/mol
same,Tm,"pH 2.8, Citric acid 50 mM",48 °C
same,heat capacity change of unfolding,"pH 2.8, Citric acid 50 mM",0.94 kcal/mol/K
same,unfolding enthalpy (calorimetric),"pH 2.8, Citric acid 50 mM",76.3 kcal/mol
same,unfolding enthalpy (van 't Hoff),"pH 2.8, Citric acid 50 mM",93.4 kcal/mol
same,Tm,"pH 3, Citric acid 50 mM",50.5 °C
same,heat capacity change of unfolding,"pH 3, Citric acid 50 mM",0.96 kcal/mol/K
same,unfolding enthalpy (calorimetric),"pH 3, Citric acid 50 mM",86.9 kcal/mol
same,unfolding enthalpy (van 't Hoff),"pH 3, Citric acid 50 mM",101 kcal/mol
same,Tm,"pH 3.5, Citric acid 50 mM",56.5 °C
same,heat capacity change of unfolding,"pH 3.5, Citric acid 50 mM",1.08 kcal/mol/K
same,unfolding enthalpy (calorimetric),"pH 3.5, Citric acid 50 mM",94.8 kcal/mol
same,unfolding enthalpy (van 't Hoff),"pH 3.5, Citric acid 50 mM",104 kcal/mol
same,Tm,"pH 3.7, Citric acid 50 mM",58.3 °C
same,heat capacity change of unfolding,"pH 3.7, Citric acid 50 mM",1.65 kcal/mol/K
same,unfolding enthalpy (calorimetric),"pH 3.7, Citric acid 50 mM",98.1 kcal/mol
same,unfolding enthalpy (van 't Hoff),"pH 3.7, Citric acid 50 mM",105 kcal/mol
same,Tm,"pH 4.5, Citric acid 50 mM",58.7 °C
same,heat capacity change of unfolding,"pH 4.5, Citric acid 50 mM",1.58 kcal/mol/K
same,unfolding enthalpy (calorimetric),"pH 4.5, Citric acid 50 mM",96.6 kcal/mol
same,unfolding enthalpy (van 't Hoff),"pH 4.5, Citric acid 50 mM",101 kcal/mol
same,Tm,"pH 5, Citric acid 50 mM",60.1 °C
same,heat capacity change of unfolding,"pH 5, Citric acid 50 mM",0.91 kcal/mol/K
same,unfolding enthalpy (calorimetric),"pH 5, Citric acid 50 mM",101 kcal/mol
same,unfolding enthalpy (van 't Hoff),"pH 5, Citric acid 50 mM",105 kcal/mol
same,Tm,"pH 5.5, Citric acid 50 mM",65.3 °C
same,heat capacity change of unfolding,"pH 5.5, Citric acid 50 mM",1.26 kcal/mol/K
same,unfolding enthalpy (calorimetric),"pH 5.5, Citric acid 50 mM",109 kcal/mol
same,unfolding enthalpy (van 't Hoff),"pH 5.5, Citric acid 50 mM",123 kcal/mol
same,Tm,"pH 6, Citric acid 50 mM",64.7 °C
same,heat capacity change of unfolding,"pH 6, Citric acid 50 mM",1.92 kcal/mol/K and 1.88 kcal/mol/K
same,unfolding enthalpy (calorimetric),"pH 6, Citric acid 50 mM",114 kcal/mol
same,unfolding enthalpy (van 't Hoff),"pH 6, Citric acid 50 mM",122 kcal/mol
same,Tm,"pH 6.5, Citric acid 50 mM",64.2 °C
same,heat capacity change of unfolding,"pH 6.5, Citric acid 50 mM",1.33 kcal/mol/K
same,unfolding enthalpy (calorimetric),"pH 6.5, Citric acid 50 mM",115 kcal/mol
same,unfolding enthalpy (van 't Hoff),"pH 6.5, Citric acid 50 mM",124 kcal/mol
